Experimental data taken from US20120238509A1.
No end group written: not given here. *: point of attachment. Acm = CC(=O)NC*

Biological target: CRFR^2 expressed by A7r5 cells, P47866
Assay: cell-based or functional assay

CRFR^2 expressed by A7r5 cells, P47866, sequence (P47866 20-411): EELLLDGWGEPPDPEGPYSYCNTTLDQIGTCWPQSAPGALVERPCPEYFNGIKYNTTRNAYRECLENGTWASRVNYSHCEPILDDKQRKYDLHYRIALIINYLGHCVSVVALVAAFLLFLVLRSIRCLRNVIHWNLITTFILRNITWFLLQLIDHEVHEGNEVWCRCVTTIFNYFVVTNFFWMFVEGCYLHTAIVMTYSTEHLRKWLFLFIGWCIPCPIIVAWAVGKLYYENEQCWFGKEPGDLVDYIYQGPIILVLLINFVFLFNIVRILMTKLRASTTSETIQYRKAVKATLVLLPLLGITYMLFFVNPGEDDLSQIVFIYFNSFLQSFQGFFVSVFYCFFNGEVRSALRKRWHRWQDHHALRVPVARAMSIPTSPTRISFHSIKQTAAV

cAMP A7r5 (EC50, nM) | Binder
6.3 nM | IVLSLDVPIGLLQILLEQARARAAREQATTNARILARVG-OH [hUcn 2-G-OH]
0.53 nM | mUcn 2 prohormone (here or on the partner: amidated at the C-terminus) peptide: TPIPTFQLLPQNSLETTPSSVTSESSSGTTTGPSASWSNSKASPYLDTRVILSLDVPIGLLRILLEQARYKAARNQAATNAQILAHV
9.5 nM | [Cys^1, 51(Acm)]-hUcn2(1-51)-OH) (peptide) peptide: C(Acm)SPTRHPGSRIVLSLDVPIGLLQILLEQARARAAREQATTNARILARVGHC(Acm)-OH
13.9 nM | IVLSLDVPIGLLQILLEQARARAAREQATTNARILARVGHC-OH [hUcn 2-GHC-OH]
2.3 nM | hUcn 2 prohormone (here or on the partner: amidated at the C-terminus) peptide: IPTFQLRPQNSPQTTPRPAASESPSAAPTWPWAAQSHCSPTRHPGSRIVLSLDVPIGLLQILLEQARARAAREQATTNARILARV
0.07 nM | VILSLDVPIGLLRILLEQARYKAARNQAATNAQILAHV-NH2 [mUcn 2]
0.05 nM | RVILSLDVPIGLLRILLEQARYKAARNQAATNAQILAHV-NH2 [R^0-mUcn 2]
0.11 nM | IVLSLDVPIGLLQILLEQARARAAREQATTNARILARV-NH2 [hUcn 2]
0.09 nM | HPGSRIVLSLDVPIGLLQILLEQARARAAREQATTNARILARV-NH2 [SRP (HPGSR-hUcn 2)]
0.027 nM | RIVLSLDVPIGLLQILLEQARARAAREQATTNARILARV-NH2 [R^0-hUcn 2]
90.4 nM | IVLSLDVPIGLLQILLEQARARAAREQATTNARILARV-OH [hUcn 2-OH]
2.9 nM | IVLSLDVPIGLLQILLEQARARAAREQATTNARILARVGH-OH [hUcn 2-GH-OH]
